Results as given in patent US7261893 (Pfizer, dated 2007).
Several values for one entry are separate records, joined by “and”; a condition that tells them apart may be missing. Equal entries are not always repeated.

B3: mature human BMP-11 (ligand, UniProt O95390 299-407, looked up)
chain: NLGLDCDEHSSESRCCRYPLTVDFEAFGWDWIIAPKRYKANYCSGQCEYMFMQKYPHTHLVQQANPRGSAGPCCTPTKMSPINMLYFNDKQQIIYGKIPGMVVDRCGCS
notes: mature; also called GDF-11; biotinylated BMP-11

Legend:
[1] = target: T1, mature human GDF-8 (growth and differentiation factor-8) (human, UniProt O14793 267-375); assay: cell-based or functional assay
[2] = target: T1, mature human GDF-8 (growth and …); assay: inhibition of biotinylated GDF-8 (10 ng/ml) binding to plate-coated ActRIIB-Fc, ELISA, Myo29 preincubated with the ligand
mature human BMP-11 = target: B3; assay: inhibition of biotinylated BMP-11 (10 ng/ml) binding to plate-coated ActRIIB-Fc, ELISA, Myo29 preincubated with the ligand
[3] = target: T2, Recombinant ActRIIB-Fc chimera (R&D Systems, Cat. No. 339-RB/CF) (UniProt Q13705 19-134); assay: ELISA, biotinylated ligand titrated on plate-coated ActRIIB-Fc, streptavidin-HRP
T2 construct: Bought reagent, coated on the plate; also called ActRIIB receptor; Fc part of the bought chimera not given
T2 sequence (Q13705 19-134, change not shown): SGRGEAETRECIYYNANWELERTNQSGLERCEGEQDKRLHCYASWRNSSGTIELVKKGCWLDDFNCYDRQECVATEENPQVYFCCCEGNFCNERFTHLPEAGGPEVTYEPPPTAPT

[4] = target: T1, mature human GDF-8 (growth and …); assay: inhibition of bioGDF-8 binding to plate-coated ActRIIB-Fc, purified scFv titrated, DELFIA TRF

B1: Myo29 human IgG1 antibody (antibody, V domains shown)
VH: QVQLVQSGAEVKKPGASVKVSCKASGYTFTSYYMHWVRQAPGQGLEWMGIINPSGGSTSYAQKFQGRVTMTRDTSTSTVYMELSSLRSEDTAVYYCARDENWGFDPWGQGTLVTVSS
VL: SYELTQPPSVSVSPGQTATITCSGHALGDKFVSWYQQGSGQSPVLVIYDDTQRPSGIPGRFSGSNSGNTATLTISGTQAMDEADYFCQAWDSSFVFGGGTKVTVLG
For B1, the “pGL3(CAGA)12 reporter gene assay (RGA) in A204 cells, GDF-8 at 20 ng/ml, IC50” value [1] was 15 ng/ml to 30 ng/ml (2×) and 0.1 nM to 0.2 nM (2×), the IC50 [2] was 0.2 to 0.4 nM and the IC50 (mature human BMP-11) was 0.2 to 0.4 nM.

B2: Myo28 human IgG1 antibody (antibody, V domains shown)
VH: QVTLKESGGGLVQPGGSLRLSCAASGFTFSRYVINWVRQAPGKGLEWVSAISVTGGSTAYADSVRGRFTISRDNSKNTLYLQMNSLRAEDTAVYYCTKGQWERGSYYFDYWGRGTLVTVSS
VL: QSVLTQPPSVSGAPGQRVTISCTGSSSNIGDGYDVHWYQQLPGTAPKLLIYGNSHRPSGVPDRFSGSKSDTSASLAITGLQVEDEADYFCHSYDGSVSGWIFGGGTKLTVLG
B2 was tested, and the “RGA and ActRIIB binding assays (not said which), IC50” value [1] was 0.2 to 0.35 nM.

For B3, the EC50 [3] was 0.04 µg/mL.

B4: Myo29 scFv (scFv)
scFv: QVQLVQSGAEVKKPGASVKVSCKASGYTFTSYYMHWVRQAPGQGLEWMGIINPSGGSTSYAQKFQGRVTMTRDTSTSTVYMELSSLRSEDTAVYYCARDENWGFDPWGQGTLVTVSSGGGGSGGGGSGGGGSALSYELTQPPSVSVSPGQTATITCSGHALGDKFVSWYQQGSGQSPVLVIYDDTQRPSGIPGRFSGSNSGNTATLTISGTQAMDEADYFCQAWDSSFVFGGGTKVTVLGAAAHHHHHH
notes: tags from the vector are not described; also called scFv of Myo29
In the case of B4, the IC50 [4] is reported as 2.4 nM.

B5: Myo28 scFv (scFv)
scFv: QVTLKESGGGLVQPGGSLRLSCAASGFTFSRYVINWVRQAPGKGLEWVSAISVTGGSTAYADSVRGRFTISRDNSKNTLYLQMNSLRAEDTAVYYCTKGQWERGSYYFDYWGRGTLVTVSSGGGGSGGGGSGGGGSAQSVLTQPPSVSGAPGQRVTISCTGSSSNIGDGYDVHWYQQLPGTAPKLLIYGNSHRPSGVPDRFSGSKSDTSASLAITGLQVEDEADYFCHSYDGSVSGWIFGGGTKLTVLGAAAHHHHHH
notes: tags from the vector are not described; also called scFv of Myo28
With B5 the IC50 [4] was 1.7 nM.

B6: Myo22 scFv (scFv)
scFv: EVQLLESGGGLVQPGGSLRLSCAASGFTFSSYAMSWVRQAPGKGLEWVSAISGSGGSTYYADSVKGRFTISRDNSKNTLYLQMNSLRAEDTAVYYCERMGPCTGGSCYDTLGNWGRGTLVTVSSGGGGSGGGGSGGGGSAQSVLTQPPSVSGAPGQRVTISCTGSSSNIGAGYDVHWYQQLPGAAPKLLIRGNGNRPSGVPDRFSVSKSGYSASLAITGLQPADEGVYYCQSYDSSLSGSKVFGQGTKLTVLGAAAHHHHHH
notes: tags from the vector are not described; also called scFv of Myo22
B6 showed an IC50 [4] of 60 nM.
